No end group written: not given here. 3C = human rhinovirus 3C (PreScission) protease cleavage site; TEV = tobacco etch virus protease cleavage site; Strep‑His = not defined here
Assays:
[1] = target: γ-tubulin ring complex (γTuRC), endogenous Xenopus laevis, P23330;Q5U4M5; assay: pull-down from Xenopus egg extract, western blot quantification; conditions: control (beads) bar est. 0.19, read off a plot; for ratio to parent: parent: est. 1.0; for response: scale: normalized band intensity
[2] = target: γ-tubulin ring complex (γTuRC), endogenous Xenopus laevis (Xenopus laevis (endogenous in egg extract)) (UniProt P23330)
γ-tubulin ring complex (γTuRC), endogenous Xenopus laevis (Xenopus laevis (endogenous in egg extract)), sequence (P23330 whole entry, looked up, the tested form may be a part, one chain of several): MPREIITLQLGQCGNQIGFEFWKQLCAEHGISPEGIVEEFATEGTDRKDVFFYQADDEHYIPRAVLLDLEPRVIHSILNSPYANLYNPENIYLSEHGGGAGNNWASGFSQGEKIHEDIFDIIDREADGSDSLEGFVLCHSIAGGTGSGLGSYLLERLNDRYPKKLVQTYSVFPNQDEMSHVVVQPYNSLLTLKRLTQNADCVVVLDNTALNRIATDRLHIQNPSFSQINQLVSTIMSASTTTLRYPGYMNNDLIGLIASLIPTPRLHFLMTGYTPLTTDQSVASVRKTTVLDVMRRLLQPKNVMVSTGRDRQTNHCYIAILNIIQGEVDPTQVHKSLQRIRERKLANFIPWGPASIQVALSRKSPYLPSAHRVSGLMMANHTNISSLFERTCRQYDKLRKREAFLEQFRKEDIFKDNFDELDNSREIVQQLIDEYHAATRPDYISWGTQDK

[3] = target: γ-tubulin ring complex (γTuRC), endogenous Xenopus laevis (Xenopus laevis (endogenous in egg extract)) (UniProt P23330); remark: listed apart in the source
[4] = target: Strep-His-TEV-HaloTag-3C-Xenopus γTuNA (Xenopus Cdk5rap2 aa 56–101), wildtype (Xenopus laevis); assay: pull-down; depletion of Xenopus egg extract with Strep-His-Halo-Xenopus γTuNA-coupled beads, a single round; γ-tubulin left in the extract by western blot against mock-treated extract
[5] = target: AU1-human γTuNA (from Strep-His-Halo-3C-AU1-human γTuNA after PreScission cleavage) (human); assay: co-sedimentation; γTuRC pulled from egg extract on Halo-3C-AU1-human γTuNA beads, eluted by 3C cleavage, 10–50% w/w sucrose gradient (200,000 g, 2 °C, 3 hr); AU1 in the peak γTuRC fraction by western blot against a titration of AU1
[6] = target: Strep-His-TEV-HaloTag-3C-Xenopus γTuNA L70A (Xenopus laevis); assay: pull-down; Halo-Magne beads coupled to N-terminally Halo-tagged γTuNA baits; 200 µL Xenopus egg extract + 800 µL CSFxB (2% sucrose), 2 hr at 4 °C, washed twice, boiled in SDS sample buffer; western blot of GCP5 and γ-tubulin, band intensities normalised to the wildtype bait
[7] = target: Strep-His-TEV-HaloTag-3C-Xenopus γTuNA I67A (Xenopus laevis); assay: as above
[8] = target: the molecule itself; assay: SEC; Superdex 200 increase 10/300 GL, ~50 µM (monomer), CSFxB with 6 mM BME without sucrose, 4 °C, 0.7 mL/min; peak retention volumes compared

For “Strep-His-TEV-HaloTag-3C-Xenopus γTuNA (Xenopus Cdk5rap2 aa 56–101), wildtype F63A”, the ratio to parent ([1]; N=2) was 0.66.

In the case of “Strep-His-TEV-HaloTag-3C-Xenopus γTuNA (Xenopus Cdk5rap2 aa 56–101), wildtype F75A”, the ratio to parent ([1]; N=2) is reported as 0.08 and the response ([1]; N=3, parent: est. 1.06) is reported as 0.02.

“Strep-His-TEV-HaloTag-3C-Xenopus γTuNA (Xenopus Cdk5rap2 aa 56–101), wildtype I67D; L70D” gave a response ([1]; N=3, parent: est. 1.06) of 0.01.

In the case of “Strep-His-TEV-HaloTag-3C-Xenopus γTuNA (Xenopus Cdk5rap2 aa 56–101), wildtype L77A”, the ratio to parent ([1]; N=2) is reported as 0.05.

“Strep-His-TEV-HaloTag-3C-human γTuNA (human CDK5RAP2 aa 53–98), wildtype I67A; L70A” gave a response ([1]; N=2, human wildtype not shown in this panel) of 0.16.

With “Strep-His-TEV-HaloTag-3C-human γTuNA (human CDK5RAP2 aa 53–98), wildtype I67D; L70D” the ratio to parent ([1]; N=3) was 0.1.

For “Strep-His-TEV-HaloTag-3C-human γTuNA (human CDK5RAP2 aa 53–98), wildtype I67D; L70D; L77D”, the ratio to parent ([1]; N=3) was 0.07.

“Strep-His-Xenopus γTuNA I67A (domain or fragment)” showed an MT number (EB1 spots) in egg extract with 2 µM γTuNA, relative to wildtype γTuNA (% of wildtype) [2] of 50.

“Strep-His-Xenopus γTuNA L70A (domain or fragment)” showed an MT number (EB1 spots) in egg extract with 2 µM γTuNA, relative to wildtype γTuNA (% of wildtype) [2] of 6.

With “Strep-His-Xenopus γTuNA, wildtype (domain or fragment)” the MT number (EB1 spots) in Xenopus egg extract by TIRF, titration of γTuNA up to 3.6 µM, fold over buffer [3] was 75 fold.

With “γ-tubulin ring complex (γTuRC), endogenous Xenopus laevis (from UniProt P23330 1-451; Q5U4M5 1-72)” the percent of γ-tubulin signal lost from the extract after one depletion [4] was > 75%, the percent of purified γTuRCs that retain a γTuNA dimer [5] was 33% and the γTuRC pulled down, percent of wildtype [6] was 35%. For the same molecule, the γTuRC pulled down, percent of wildtype [7] was 67%.

B1: Strep-His-TEV-HaloTag-3C-Xenopus γTuNA (Xenopus Cdk5rap2 aa 56–101), wildtype (domain or fragment, Xenopus laevis)
chain: {Strep‑His-TEV-HaloTag-3C}-MKDFEKQIAELKKENFNLKLRIYFLEEQVQQKCDNSSEDLYRMNIE
modifications: reading uncertain
notes: γTuNA (CM1) domain of Xenopus laevis Cdk5rap2 isoform X1 (905 aa), aa 56–101; TEV and PreScission (3C) cleavage sites lie between the tags and γTuNA; also called Halo-Xenopus γTuNA; Strep-His-Halo-Xenopus γTuNA; source: E. coli Rosetta 2 (DE3), purified (Strep-Tactin); not shown: StrepTagII, N-terminal, kept; 6xHis, N-terminal, kept; HaloTag, N-terminal, kept
In the case of B1, the “stoichiometry N” value [8] is reported as 2.

B2: Strep-His-TEV-HaloTag-3C-Xenopus γTuNA F75A (Xenopus F71A) (domain or fragment, Xenopus laevis)
chain: {Strep‑His-TEV-HaloTag-3C}-MKDFEKQIAELKKENANLKLRIYFLEEQVQQKCDNSSEDLYRMNIE
modifications: reading uncertain
notes: γTuNA of Xenopus laevis Cdk5rap2 isoform X1, aa 56–101; it is F71 in Xenopus; also called Halo-Xenopus γTuNA F75A; Xenopus F75A mutant; source: E. coli Rosetta 2 (DE3), purified (Strep-Tactin); not shown: StrepTagII, N-terminal, kept; 6xHis, N-terminal, kept; HaloTag, N-terminal, kept
B2: binds [8].

B3: Strep-His-TEV-HaloTag-3C-human γTuNA (human CDK5RAP2 aa 53–98), wildtype (domain or fragment)
chain: {Strep‑His-TEV-HaloTag-3C}-SPTRARNMKDFENQITELKKENFNLKLRIYFLEERMQQEFHGPTEH
modifications: reading uncertain
notes: γTuNA (CM1) domain of human CDK5RAP2 isoform A (1893 aa), aa 53–98; TEV and PreScission (3C) cleavage sites lie between the tags and γTuNA; also called Halo-human γTuNA; human wildtype Halo-γTuNA; source: E. coli Rosetta 2 (DE3), purified (Strep-Tactin); not shown: StrepTagII, N-terminal, kept; 6xHis, N-terminal, kept; HaloTag, N-terminal, kept
In the case of B3, the “stoichiometry N” value [8] is reported as 2.
